In patent US20220289810A1:

Biological target: bovine FSH hormone receptor expressed on HEK 293T cells (bovine) (UniProt P35376)
Test: cell-based or functional assay

Sequence of UniProt P35376 (P35376 18-695): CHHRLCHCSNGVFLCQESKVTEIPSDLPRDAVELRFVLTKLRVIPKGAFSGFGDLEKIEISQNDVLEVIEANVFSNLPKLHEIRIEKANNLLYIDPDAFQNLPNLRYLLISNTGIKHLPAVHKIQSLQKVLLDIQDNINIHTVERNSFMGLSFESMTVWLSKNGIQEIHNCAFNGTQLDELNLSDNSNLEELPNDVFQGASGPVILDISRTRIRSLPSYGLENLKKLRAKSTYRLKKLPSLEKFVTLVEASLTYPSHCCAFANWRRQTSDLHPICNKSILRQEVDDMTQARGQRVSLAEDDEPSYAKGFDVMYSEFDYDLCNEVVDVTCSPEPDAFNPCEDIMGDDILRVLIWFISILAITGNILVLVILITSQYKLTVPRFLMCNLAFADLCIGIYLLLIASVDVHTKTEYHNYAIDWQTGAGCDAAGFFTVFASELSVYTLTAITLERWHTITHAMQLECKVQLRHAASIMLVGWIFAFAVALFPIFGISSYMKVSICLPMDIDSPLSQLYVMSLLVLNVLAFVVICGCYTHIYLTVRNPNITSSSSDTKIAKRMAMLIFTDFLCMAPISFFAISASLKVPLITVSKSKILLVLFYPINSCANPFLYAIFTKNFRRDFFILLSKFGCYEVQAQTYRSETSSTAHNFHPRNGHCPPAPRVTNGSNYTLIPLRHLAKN

Estimated potency in vitro (sample 5G)	biological activity in vitro by stimulation of luciferase activity	in vitro FSH activity (CRE-luciferase reporter, HEK 293T cells with bovine FSH receptor); affinity purified construct #5 from transiently transfected CHO cells	Substance
6200 IU/mg	4010 IU/mg	61 IU	recombinant single chain equine chorionic gonadotropin NTP-BetaCTP-CTP-Alpha (CONSTRUCT #5) (ligand)
–	13300 IU/mg	–	recombinant single chain equine chorionic gonadotropin BetaCTP-CTP-Alpha (CONSTRUCT #4) (ligand)
–	4770 IU/mg	–	recombinant single chain equine chorionic gonadotropin CTP-BetaCTP-CTP-Alpha (CONSTRUCT #6) (ligand)
